Test results reported in the supplement of paper PMC7125110.
± gives the standard error. For part of these data: Fewer inactive variants are shown than the library holds.

B1: glmS ribozyme (parent)
chain: AUAAAAGCGCCAGAACUACAGAAAUGUAGUUGACGAGGAGGAGGUUUAUCGAAUUUUCGGCGGAUGCCUCCAAA

What was measured:
Details in all cases: with glucosamine-6-phosphate
[1] = variants of: B1; experiment: kcat; higher = faster cleavage; RNA array
Procedure, shortened: (§1)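 Barcoded glmS ribozyme variants on sequenced MiSeq chips were transcribed in situ by E. coli RNA polymerase and tracked through a hybridised Cy3 probe at 37 °C. Glucosamine-6-phosphate (40 μM to 10 mM) in HEPES/KCl/Mg(OAc)2 buffer was flowed in, and tiles were imaged over ~14 h. Signals were normalised to baseline and to non-cleaving reference variants; per-tile medians were fit to one- or two-exponential decays to give kobs. kcat and KM came from weighted Michaelis–Menten fits across concentrations.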

[2] = variants of: B1; experiment: KM; higher = weaker cofactor use; RNA array
Procedure, shortened: as §1

[3] = variants of: B1; experiment: self-cleavage kobs at 640 uM GlcN6P; higher = faster cleavage; RNA array
Procedure, shortened: as §1

[4] = variants of: B1; experiment: self-cleavage kobs at 2500 uM GlcN6P; higher = faster cleavage; RNA array
Procedure, shortened: as §1

[5] = variants of: B1; experiment: self-cleavage kobs at 10000 uM GlcN6P; higher = faster cleavage; RNA array
Procedure, shortened: as §1

[6] = variants of: B1; experiment: self-cleavage kobs at 40 uM GlcN6P; higher = faster cleavage; RNA array
Procedure, shortened: as §1

[7] = variants of: B1; experiment: self-cleavage kobs at 160 uM GlcN6P; higher = faster cleavage; RNA array
Procedure, shortened: as §1

Variant | kcat [1] [s⁻¹] | KM [2] [µM] | self-cleavage kobs at 640 uM GlcN6P [3] [s⁻¹] | self-cleavage kobs at 2500 uM GlcN6P [4] [s⁻¹] | self-cleavage kobs at 10000 uM GlcN6P [5] [s⁻¹] | self-cleavage kobs at 40 uM GlcN6P [6] [s⁻¹] | self-cleavage kobs at 160 uM GlcN6P [7] [s⁻¹]
U47C C58A | 0.00036 ± 6e-05 | 4240 ± 1300 | 3.95e-05 ± 1.1e-05 | 0.00016 ± 2.7e-05 | 0.000244 ± 3.3e-05 | – | –
C11A U54A | 0.000163 ± 1.3e-05 | 1490 ± 400 | 5.49e-05 ± 1.4e-05 | 9.05e-05 ± 1.9e-05 | 0.000145 ± 1.4e-05 | – | –
G29C C61A | 1.76e-05 ± 3.3e-06 | – | – | – | – | < 1e-05 | –
C10U G35A | 1.32e-05 ± 1.8e-06 | – | – | – | < 1e-05 | – | –
U31G G40U | 0.00241 ± 0.0003 | 2730 ± 500 | 0.000515 ± 5.8e-05 | 0.00119 ± 0.00013 | 0.00183 ± 0.0002 | 3.85e-05 ± 7.6e-06 | 0.000115 ± 1.6e-05
G13A G66U | 1.72e-05 ± 6.7e-06 | – | – | – | – | < 1e-05 | –
U31C A64U | < 1e-05 | – | – | – | – | – | –
U45A C70A | 0.000375 ± 0.00017 | – | 0.000179 ± 3.7e-05 | 0.000225 ± 3.4e-05 | – | – | 2.63e-05 ± 1.1e-05
U56G U69A | 0.00018 ± 3.2e-05 | – | 0.000102 ± 2.7e-05 | 0.000186 ± 3.1e-05 | 0.000176 ± 3.7e-05 | 4.08e-05 ± 1.8e-05 | –
A39U A42U U55G G66U | 0.000223 ± 7.5e-06 | 1100 ± 96 | 8.2e-05 ± 2.5e-05 | 0.000166 ± 5.4e-05 | 0.000198 ± 3.5e-05 | – | –
A52C C70U | 5.27e-05 ± 9.4e-06 | – | – | 5.72e-05 ± 1e-05 | 4.63e-05 ± 7.5e-06 | – | –
C67A C68A | 3.56e-05 ± 6.8e-06 | – | 5.08e-05 ± 1.2e-05 | 2.46e-05 ± 1e-05 | 3.61e-05 ± 9.6e-06 | – | –
U45G C70U | 0.00681 ± 0.0021 | 562 ± 260 | 0.00288 ± 0.0004 | 0.00473 ± 0.00096 | 0.0102 ± 0.0013 | 0.000542 ± 5.6e-05 | 0.00139 ± 0.00018
U30A A33C | 6.48e-05 ± 3e-06 | 4930 ± 560 | – | – | 4.35e-05 ± 1.2e-05 | – | –
A12U U65G | 0.00705 ± 0.00071 | 4650 ± 730 | 0.000829 ± 0.00018 | 0.00239 ± 0.00046 | 0.00483 ± 0.00044 | 5.57e-05 ± 9.8e-06 | 0.000303 ± 6.4e-05
A12G A33G U57A G59U | < 1e-05 | – | < 1e-05 | < 1e-05 | – | – | –
U46C G66A | 0.000975 ± 0.00019 | 799 ± 250 | 0.000364 ± 9.2e-05 | 0.000662 ± 0.00023 | 0.00107 ± 0.00025 | 5.14e-05 ± 1e-05 | –
C11A U57A | < 1e-05 | – | – | – | – | – | –

Variant | kcat [1] [s⁻¹] | KM [2] [µM] | self-cleavage kobs at 640 uM GlcN6P [3] [s⁻¹] | self-cleavage kobs at 2500 uM GlcN6P [4] [s⁻¹] | self-cleavage kobs at 10000 uM GlcN6P [5] [s⁻¹] | self-cleavage kobs at 40 uM GlcN6P [6] [s⁻¹] | self-cleavage kobs at 160 uM GlcN6P [7] [s⁻¹]
C61G U69C | 6.05e-05 ± 1.7e-05 | – | 5.44e-05 ± 1.3e-05 | 7.59e-05 ± 1.2e-05 | – | – | 6.31e-05 ± 1.1e-05
C11U C71G | 0.000109 ± 9.1e-06 | 408 ± 150 | 7.07e-05 ± 1.2e-05 | 8.38e-05 ± 1.2e-05 | 0.000111 ± 1.2e-05 | – | –
C10U A14C U30A G35A G38A | < 1e-05 | – | – | – | – | – | –
A6U A52U | < 1e-05 | – | – | – | < 1e-05 | – | < 1e-05
G29A A53C | 0.000592 ± 0.0002 | – | 0.000185 ± 5.1e-05 | 0.00047 ± 0.00011 | – | – | 9.67e-05 ± 2.5e-05
G32C U54G | 9.47e-05 ± 8e-06 | 2550 ± 810 | – | 5.12e-05 ± 1.5e-05 | 7.5e-05 ± 8.5e-06 | – | –
A53U C58U | 6.85e-05 ± 2.7e-06 | 2650 ± 390 | – | 3.23e-05 ± 1.2e-05 | 5.43e-05 ± 6.6e-06 | – | –
G37A C58A | 1.97e-05 ± 3.4e-06 | – | – | – | – | – | –
G29A U54A | 0.00945 ± 0.0024 | 3150 ± 1100 | 0.0011 ± 0.00037 | 0.00422 ± 0.00084 | 0.00745 ± 0.0014 | 0.000135 ± 2.1e-05 | –
A6U C68A | < 1e-05 | – | – | – | – | – | –
G51A U69A | 1.6e-05 ± 2.9e-06 | – | – | – | – | – | –
A12U U47A | 0.063 ± 0.02 | 1490 ± 570 | 0.0249 ± 0.0068 | 0.0403 ± 0.011 | 0.0554 ± 0.01 | 0.00189 ± 0.00018 | 0.0041 ± 0.00089
A14C U46C | 0.000346 ± 4.7e-05 | 1090 ± 350 | 0.000128 ± 2.4e-05 | – | 0.000326 ± 4.5e-05 | – | 5.14e-05 ± 1.9e-05
A48G U56G | 7.92e-05 ± 1.9e-06 | 696 ± 110 | – | 6.4e-05 ± 1.3e-05 | 7.35e-05 ± 8.9e-06 | < 1e-05 | –
C16U C67A | 0.00194 ± 0.0004 | 360 ± 110 | 0.00138 ± 0.00017 | 0.00166 ± 0.0003 | – | 0.000212 ± 2.2e-05 | 0.0005 ± 6.7e-05
G40U A64G | 0.000292 ± 2.9e-05 | 1790 ± 360 | 8.19e-05 ± 1.2e-05 | 0.000145 ± 2.8e-05 | 0.00026 ± 3.3e-05 | – | –
U30A C71A | 0.00089 ± 0.00018 | 603 ± 230 | 0.000632 ± 0.0002 | 0.000946 ± 0.00022 | 0.00072 ± 0.00016 | 5.08e-05 ± 1.3e-05 | –
G32C U47A | 4.35e-05 ± 2.1e-06 | 1450 ± 320 | – | 2.87e-05 ± 1.3e-05 | 3.77e-05 ± 9.7e-06 | – | –
